Experimental data reported in article PMC3438722, “DNA Binding in High Salt: Analysing the Salt Dependence of Replication Protein A3 from the Halophile Haloferax volcanii” (Archaea, 2012).

How the values were obtained:
[1] = biological target: the molecule itself; assay: SEC; last step of the purification, 26/60 Superdex 200, 50 mM Hepes pH 7.0, 1.0 M NaCl
[2] = biological target: the molecule itself; assay: SEC; analytical, 10/300 Superdex 200, 50 mM HEPES pH 7.0, 0.2 M KCl; 250 ug protein incubated one hour in the buffer; calibrated with gel filtration standards
[3] = biological target: the molecule itself; assay: SEC; analytical, 10/300 Superdex 200, 50 mM HEPES pH 7.0, 1.0 M KCl; 250 ug protein incubated one hour in the buffer; calibrated with gel filtration standards
HvRPA3 CTD-1 [4] = biological target: T1, HvRPA3 CTD-1 (Haloferax volcanii DS2 (wild-type), UniProt D4GZS1 164-311); assay: fluorescence anisotropy; any KCl condition; data not shown; FA: 50 mM HEPES pH 7.0, 10% glycerol, 0.03% BSA, 20 nM Cy5-oligo, 0.2, 1 or 3 M KCl, room temperature 10 min; SEC: 50 mM HEPES pH 7.0, 0.2, 1 or 3 M KCl; EMSA:; details: protein: recombinant; tags: N-terminal 6xHis; chain copies: 4; label: 5' Cy5; single strand
T1 sequence: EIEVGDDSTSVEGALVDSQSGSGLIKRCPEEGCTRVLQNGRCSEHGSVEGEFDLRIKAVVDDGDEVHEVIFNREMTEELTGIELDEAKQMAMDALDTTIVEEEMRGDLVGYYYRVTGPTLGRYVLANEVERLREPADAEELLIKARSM

HvRPA3 CTD-2 [5] = biological target: T2, HvRPA3 CTD-2 (Haloferax volcanii DS2 (wild-type), UniProt D4GZS1 164-311); assay: as above; details: protein: recombinant; tags: N-terminal 6xHis; label: 5' Cy5; single strand
T2 sequence: T1 sequence

HvRPA3 full length [6] = biological target: T3, HvRPA3 full length (Haloferax volcanii DS2 (wild-type), UniProt D4GZS1 1-311); assay: fluorescence anisotropy; 1 M KCl; Hill 0.9 ± 0.1; monomer equivalents; FA: 50 mM HEPES pH 7.0, 10% glycerol, 0.03% BSA, 20 nM Cy5-oligo, 0.2, 1 or 3 M KCl, room temperature 10 min; SEC: 50 mM HEPES pH 7.0, 0.2, 1 or 3 M KCl; EMSA:; details: protein: recombinant; tags: N-terminal 6xHis; label: 5' Cy5; single strand
T3 sequence: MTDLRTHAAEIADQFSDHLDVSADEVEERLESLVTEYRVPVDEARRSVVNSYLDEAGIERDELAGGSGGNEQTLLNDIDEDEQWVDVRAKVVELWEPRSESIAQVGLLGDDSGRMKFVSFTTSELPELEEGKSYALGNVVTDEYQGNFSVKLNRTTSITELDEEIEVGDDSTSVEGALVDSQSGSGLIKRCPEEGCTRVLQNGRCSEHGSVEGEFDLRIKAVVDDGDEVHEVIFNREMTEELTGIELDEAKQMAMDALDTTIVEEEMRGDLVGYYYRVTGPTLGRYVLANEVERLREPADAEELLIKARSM

HvRPA3-NTD (OB-fold) = biological target: T4, HvRPA3-NTD (OB-fold) (Haloferax volcanii DS2 (wild-type), UniProt D4GZS1 1-163); assay: fluorescence anisotropy; 1 M KCl; two-site fit, high-affinity site; dimer concentration; FA: 50 mM HEPES pH 7.0, 10% glycerol, 0.03% BSA, 20 nM Cy5-oligo, 0.2, 1 or 3 M KCl, room temperature 10 min; SEC: 50 mM HEPES pH 7.0, 0.2, 1 or 3 M KCl; EMSA:; details: protein: recombinant; tags: N-terminal 6xHis; label: 5' Cy5; single strand
T4 sequence: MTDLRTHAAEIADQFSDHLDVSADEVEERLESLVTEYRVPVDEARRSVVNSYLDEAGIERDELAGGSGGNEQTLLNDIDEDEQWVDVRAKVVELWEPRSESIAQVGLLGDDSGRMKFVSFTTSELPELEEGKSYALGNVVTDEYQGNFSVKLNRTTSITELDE

HvRPA3 full length [7] = biological target: T3, HvRPA3 full length; assay: fluorescence anisotropy; 3 M KCl; Hill 1.2 ± 0.1; FA: 50 mM HEPES pH 7.0, 10% glycerol, 0.03% BSA, 20 nM Cy5-oligo, 0.2, 1 or 3 M KCl, room temperature 10 min; SEC: 50 mM HEPES pH 7.0, 0.2, 1 or 3 M KCl; EMSA:; details: protein: recombinant; tags: N-terminal 6xHis; label: 5' Cy5; single strand
HvRPA3 CTD-1 [8] = biological target: T1, HvRPA3 CTD-1; assay: analytical SEC; any KCl condition (0.2, 1, 3 M); data not shown; FA: 50 mM HEPES pH 7.0, 10% glycerol, 0.03% BSA, 20 nM Cy5-oligo, 0.2, 1 or 3 M KCl, room temperature 10 min; SEC: 50 mM HEPES pH 7.0, 0.2, 1 or 3 M KCl; EMSA:; details: protein: recombinant; tags: N-terminal 6xHis; chain copies: 4; single strand
HvRPA3 CTD-2 [9] = biological target: T2, HvRPA3 CTD-2; assay: as above; details: protein: recombinant; tags: N-terminal 6xHis; single strand
[10] = biological target: the molecule itself; assay: SEC; analytical, 10/300 Superdex 200, 50 mM HEPES pH 7.0, 1.0 M KCl, with equimolar (monomer equivalent) 18mer ssDNA

B1: HvRPA3 C-terminal domain (residues 164-311), second size exclusion peak (CTD-2) (domain or fragment, Haloferax volcanii, UniProt D4GZS1 164-311, looked up)
chain: T1 sequence
notes: Replication protein A3 (RPA3) of Haloferax volcanii, C-terminal domain residues 164-311, holds the zinc finger motif; Same construct as m3; the peak of lower apparent mass in the last purification step; Holds zinc (0.53 mol/mol); also called HvRPA3-CTD-2; source: E. coli B834 (DE3), purified (ammonium sulphate fractionation, Talon resin, Superdex 200; second of two peaks); not shown: 6xHis, …
In the case of B1, the “stoichiometry N” value [1] is reported as 2 and the “stoichiometry N” value [2] is reported as 3.

B2: HvRPA3 C-terminal domain (residues 164-311), first size exclusion peak (CTD-1) (domain or fragment, Haloferax volcanii, UniProt D4GZS1 164-311, looked up)
chain: T1 sequence
notes: Replication protein A3 (RPA3) of Haloferax volcanii, C-terminal domain residues 164-311, holds the zinc finger motif; Same construct as m4; the peak of higher apparent mass in the last purification step, concentrated apart; also called HvRPA3-CTD-1; source: E. coli B834 (DE3), purified (ammonium sulphate fractionation, Talon resin, Superdex 200; first of two peaks); not shown: 6xHis, N-terminal, …
With B2 the “stoichiometry N” value [1] was 4, the “stoichiometry N” value [2] was 7 and the “stoichiometry N” value [3] was 5.

In the case of GCGTGTGTGGTGGTGTGC (ssDNA) [Cy5-18mer ssDNA (FA)], the binding result (HvRPA3 CTD-1 [4]) is reported as “no binding”, the binding result (HvRPA3 CTD-2 [5]) is reported as “no binding” and the Kd (HvRPA3 full length [6]) is reported as 53.9 ± 18.3 nM. For the same binder, the Kd (HvRPA3-NTD (OB-fold)) was 4.1 ± 7.9 nM and the Kd (HvRPA3 full length [7]) was 24.1 ± 2.9 nM.

GCGTGTGTGGTGGTGTGC (ssDNA) [18mer ssDNA (SEC)]: no binding (HvRPA3 CTD-1 [8]); no binding (HvRPA3 CTD-2 [9]).

B3: HvRPA3 N-terminal domain (residues 1-163) (domain or fragment, Haloferax volcanii, UniProt D4GZS1 1-163, looked up)
chain: T4 sequence
notes: Replication protein A3 (RPA3) of Haloferax volcanii, N-terminal domain residues 1-163, holds the OB-fold; Tagged construct has a predicted MW of 18.9 x 10^3; also called NTD; HvRPA3-NTD; source: E. coli B834 (DE3), purified (ammonium sulphate fractionation, Talon resin, Superdex 200); not shown: 6xHis, N-terminal, kept
B3 was tested, and the “stoichiometry N” value [10] was 2 and the “stoichiometry N” value [2] was 3.

B4: Replication protein A3 from Haloferax volcanii, full length (natural protein, UniProt D4GZS1 1-311, looked up)
chain: T3 sequence
notes: Replication protein A3 (RPA3) of Haloferax volcanii, amplified from genomic DNA of wild-type DS2; full length, residues 1-311 (the CTD construct ends at 311); Oligomeric state depends on the salt concentration; Tagged protein has a predicted MW of 35.4 x 10^3; also called HvRPA3; RPA3; source: E. coli B834 (DE3), purified (ammonium sulphate fractionation, Talon resin, Superdex 200); not shown: …
For B4, the “stoichiometry N” value [2] was 4 and the “stoichiometry N” value [3] was 2.
